According to publication PMC8409457 (2021):
Bridges are numbered along the chain shown (N, C = ends). Where no end group is shown, it is not given here.

Assays:
[1] = target: MDM2 (UniProt Q00987 1-491); assay: FP; reduced
[2] = target: T1, Bcl-2 (UniProt P10415 1-239); assay: FP
[3] = target: T1, Bcl-2; assay: SPR

T1 sequence (P10415 whole entry): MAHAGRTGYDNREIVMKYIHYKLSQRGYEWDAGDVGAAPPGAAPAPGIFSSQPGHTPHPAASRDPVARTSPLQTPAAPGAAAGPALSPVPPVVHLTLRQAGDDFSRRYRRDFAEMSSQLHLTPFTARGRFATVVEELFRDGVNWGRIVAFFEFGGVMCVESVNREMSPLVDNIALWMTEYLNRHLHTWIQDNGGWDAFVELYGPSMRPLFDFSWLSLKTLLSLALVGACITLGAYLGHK
Chain of MDM2 (Q00987 whole entry): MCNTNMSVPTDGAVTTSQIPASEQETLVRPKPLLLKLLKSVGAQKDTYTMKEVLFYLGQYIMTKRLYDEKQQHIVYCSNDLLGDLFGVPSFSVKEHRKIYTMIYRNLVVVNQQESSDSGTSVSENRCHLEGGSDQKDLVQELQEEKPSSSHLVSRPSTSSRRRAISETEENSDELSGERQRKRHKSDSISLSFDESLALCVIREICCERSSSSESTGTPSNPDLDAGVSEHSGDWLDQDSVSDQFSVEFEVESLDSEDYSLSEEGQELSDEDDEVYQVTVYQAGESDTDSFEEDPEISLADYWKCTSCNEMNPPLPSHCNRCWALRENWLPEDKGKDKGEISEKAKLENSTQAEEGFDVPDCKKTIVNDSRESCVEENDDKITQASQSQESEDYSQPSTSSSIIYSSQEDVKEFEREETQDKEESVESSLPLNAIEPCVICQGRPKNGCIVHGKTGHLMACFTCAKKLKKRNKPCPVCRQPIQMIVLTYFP

Row | Binder | Ki [1] [nM] | Ki [2] [nM] | koff [3] [s⁻¹]
1 | GCEKATESESPCPCIFPELCPWIVCC (cysteines reduced (no disulfide bonds)) [reduced linear peptide 15] | 1120 | – | –
2 | GCMILLDTDIWCPCSHPYACPENICC (disulfide 12-26 (inferred); disulfide 14-20, 2-25) [oxidized peptide 16] | – | 770 | 0.0498
